This note sets out measurements from PMC2213610.

For this assay, the target named is VASP, endogenous in human endothelial cells (human (endogenous in EA.hy926 and ECV304)) (UniProt P50552). Description: co-IP.
Sequence of VASP, endogenous in human endothelial cells (human (endogenous in EA.hy926 and ECV304)) (P50552 whole entry): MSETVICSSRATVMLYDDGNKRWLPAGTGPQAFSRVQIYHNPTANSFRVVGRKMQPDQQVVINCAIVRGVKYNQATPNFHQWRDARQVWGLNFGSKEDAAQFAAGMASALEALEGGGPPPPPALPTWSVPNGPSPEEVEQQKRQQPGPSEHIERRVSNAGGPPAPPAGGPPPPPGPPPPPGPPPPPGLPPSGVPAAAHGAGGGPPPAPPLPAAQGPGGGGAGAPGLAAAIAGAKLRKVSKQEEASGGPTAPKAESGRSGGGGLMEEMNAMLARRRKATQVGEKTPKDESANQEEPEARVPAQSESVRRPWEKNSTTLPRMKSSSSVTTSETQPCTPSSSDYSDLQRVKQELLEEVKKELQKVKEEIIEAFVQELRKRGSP

For the substance “αII-spectrin (SPCN), endogenous in human endothelial cells, Q13813 1-2472”, the percent of cellular SPCN coprecipitated is over 70%.
